Positions count from the first letter of the chain named.
T1: MERS-CoV [change] (MERS-CoV, UniProt K9N5Q8 18-725)
T1 sequence: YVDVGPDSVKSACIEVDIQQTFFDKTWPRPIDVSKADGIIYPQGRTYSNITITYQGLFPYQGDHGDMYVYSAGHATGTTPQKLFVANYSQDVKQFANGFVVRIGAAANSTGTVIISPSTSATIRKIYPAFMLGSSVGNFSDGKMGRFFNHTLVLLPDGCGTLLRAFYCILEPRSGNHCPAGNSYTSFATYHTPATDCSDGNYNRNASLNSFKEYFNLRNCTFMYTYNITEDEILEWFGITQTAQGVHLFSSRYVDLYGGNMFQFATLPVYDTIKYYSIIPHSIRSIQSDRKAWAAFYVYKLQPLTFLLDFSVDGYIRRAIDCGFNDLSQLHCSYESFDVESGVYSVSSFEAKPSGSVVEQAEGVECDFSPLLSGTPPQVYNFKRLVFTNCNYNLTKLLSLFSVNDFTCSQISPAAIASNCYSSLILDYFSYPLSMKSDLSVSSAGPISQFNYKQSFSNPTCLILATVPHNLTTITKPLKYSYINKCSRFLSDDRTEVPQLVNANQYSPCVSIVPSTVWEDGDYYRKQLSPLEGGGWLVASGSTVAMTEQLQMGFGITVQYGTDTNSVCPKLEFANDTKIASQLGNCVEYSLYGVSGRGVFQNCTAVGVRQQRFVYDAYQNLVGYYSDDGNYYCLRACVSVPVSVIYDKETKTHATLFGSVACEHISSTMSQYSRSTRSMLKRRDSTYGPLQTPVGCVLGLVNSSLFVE

B1: A-23 (antibody, V domains shown)
VH: EVQLVESGGGLVQPGRSLRLSCAASGFTFDDYAMHWVRQAPGKGLEWVSGISWNSGTIGYADSVKGRFIISRDNAKNSLYLQMNSLRGEDMALYYCGKDRKREDPSLGGMDVWGQGTTVTVSS
VL: SYVLTQPPSVSVAPGQTARITCGGNNIGSKSVHWYQQKPGQAPVLVVYDDTDRPSGIPERFSGSNSGNTATLTISRVEAGDEADYYCQVWDSSSDHYVFGTGTKVTVL
B2: A-23.2 (antibody, V domains shown)
VH: B1 VH with I51T, G97V
VL: B1 VL with S92V, H96S
B3: A-23.1 (antibody, V domains shown)
VH: B1 VH with F29I, S55G
VL: B1 VL with G23L, S93E
B4: A-24.1 (antibody, V domains shown)
VH: EVQLVESGGGLVKPGRSLRLSCAASGFTFADYTMSWFRQAPGKGLEWVGFIRSEPYGGTTEYAASVKGRFTISRDDSKSIAYLQMNSLKTEDTAVYYCSRDPWYCSGGDCYAVTGSWFDPWGQGTLVTVSS
VL: DIQMTQSPSSLSASVGDRVTITCQASQDIKKYLNWYQQKPGKAPKLLIYDVSNLETGVPSRFSGSGSGTDFTFTISSLQPEDVAIYYCQQYDNLPQTFGQGTKVEIK
B5: A-24.3 (antibody, V domains shown)
VH: B4 VH
VL: B4 VL with Q27R, N93Q, K107E
B6: A-24 (antibody, V domains shown)
VH: B4 VH with T33A, E54K
VL: B4 VL
B7: A-24.2 (antibody, V domains shown)
VH: B4 VH
VL: B4 VL with K31Q, V51Q, D92W
B8: A-22.1 (antibody, V domains shown)
VH: not shown
VL: EIVLTQSPGTLSLSPGERATLSCRASQTVRSDLAWYQQKPGQAPRLLIYGASTRATDISDRFSGSGSGTEFTLTISSLQSEDFAVYYCQQYYEWPPHSDSFGGGTKVEIK
B9: A-22.3 (antibody, V domains shown)
VH: not shown
VL: B8 VL with A51G
B10: A-22.2 (antibody, V domains shown)
VH: not shown
VL: B8 VL with R24S, A51G
B11: A-21 (antibody, V domains shown)
VH: EVQLVESGGGLVQPGGSLRLSCAASGFTFSRYWMHWVRQAPGKGLVWVSRINSDGSSTTYADSVKGRFTISRDNAKNTLYLQMNSLRAEDTAVYYCARELYYYDSRGAEEGEGWFDPWGQGTLVTVSS
VL: QSVLTQPPSVSGAPGQRVTISCTGISSNIGAGYDVHWYQQLPGTAPKLLIYGNSNRPSGVPDRFSASKSGTSAPLAITGLQAEDEADYYCQSSDRSLSGSVFGTGTKVTVL
B12: A-21.2 (antibody, V domains shown)
VH: B11 VH
VL: B11 VL with G32Q, S58R, L97V
B13: A-21.3 (antibody, V domains shown)
VH: B11 VH with S30R, V46E, K65E, S105R
VL: B11 VL with G32E, S58R, S92V, S96Y
B14: A-11 (antibody, V domains shown)
VH: EVQLVESGAEVKKPGSSVMVSCKASGGTFSRYAISWVRQAPGQGLEWMGGIIPVFGIVHYAQKFQGRVTITADKSTSTAYMELSSLRSEDTAAYYCARDRQQQPSPYYYHGMDVWGQGTTVTVSS
VL: DIRLTQSPSSLSASVGDRVTITCQASQDISNYLNWYQQKPGKAPKLLIYDASNLETGVPTRFSGSGSGTDFTFTISSLQPEDIATYYCQQYDNLPLFGGGTKVEIK
B15: A-10 (antibody, V domains shown)
VH: QVQLVQSGGGVVQPGRSLRLSCAASGFTFSSYGMHWVRQAPGKGLEWVAVISYDGSNKYYTDSVKGRFTISRDNSKNTLYLQMNSLRAEDTAVYYCAKDLPREVYYDILTGYDNPYYYYGMDVWGQGTTVTVSS
VL: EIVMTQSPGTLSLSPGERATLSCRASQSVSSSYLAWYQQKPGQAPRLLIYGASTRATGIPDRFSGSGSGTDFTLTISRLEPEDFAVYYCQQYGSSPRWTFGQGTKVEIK
B16: A-13 (antibody, V domains shown)
VH: QVQLVQSGAEVKKPGASVKVSCKASGYTFTDYYMHWVRQAPGQGLEWMGWINPNSGGTNSAQKFQGRVTMTRDTSINTAYMELSRLRSDDTAVYFCARDSHLAMVRGDFEYWGQGTLVTVSS
VL: QSVLTQPASVSGSPGQSITISCTGTSSDVESYNVVSWYQQHPGKAPKLMIYEVSKRPSGVSHRFSGSKSGNTASLTISGLQAEDESDYYCCSYAGNSTWVFGGGTKLTVL
B17: A-19 (antibody, V domains shown)
VH: QVQLVQSGAEVKKPGESLKISCKGSGYSFTSYWIAWVRQMPGKGLEWMGIIYPGDSDTSYSPSFQGQVTISADKSISTAYLQWSSLKASDTAMYYCARGPNKYNWFDTWGQGTLVTVSS
VL: not shown
B18: A-2 (antibody, V domains shown)
VH: EVQLVESGGGLIQPGGSLRLSCAASGFTVSSNYMSWVRQAPGKGLEWVSIIYSGGSTYYADSVKGRFTISRDNSKNTLYLQMNSLRAEDTAVYYCARAPSGEYGDPIYYWGQGTLVTVSS
VL: QSVLTQPPSASASLGASVKLTCTLSSGHSTYTIAWHQQQPEKGPRYLMKLNSDGSHSKGDGIPDRFSGSSSGAERYLTISSLQSEDEADYYCQTWGTGNHWVFGGGTKLTVL
B19: A-1 (antibody, V domains shown)
VH: EVQLVESGGGVVQPGGSLRLSCAASGFAFSTYWMHWVRQAPGKGLVWVSRINGDGSGTNYADSVKGRFTISRDNAKSTLYLQMNSLRTEDTAVYYCTRTAGRGAYDFGRFDPWGQGTLVTVSS
VL: DIVLTQTPLSLPVTPGEPASISCRSSQSLLHSNGYNYLDWYLQKAGQSPQLLVFLGSNRASGVPDRFSGSASGTDFTLKISRVEAEDVGVYYCMQALQIPITFGQGTRLEIK

Target: T2, SARS-CoV-2 Spike S1-His (SARS-CoV-2, UniProt P0DTC2 16-685)
Test: Octet BLI, IgG, monovalent

In order of rising Kd:
1. B12  0.195 nM
2. B13  0.241 nM
3. B9  0.245 nM
4. B10  0.254 nM
5. B8  0.278 nM
6. B7  0.289 nM
7. B2  0.454 nM
8. B5  0.479 nM
9. B11  0.529 nM
10. B3  0.829 nM
11. B4  0.999 nM
12. B1  2.11 nM
13. B6  5.36 nM

Target: T3, SARS-CoV1 Spike [change] (SARS-CoV-1, UniProt P59594 14-667)
Test: Octet BLI, IgG, monovalent

B1: no binding.
B2: no binding.
B3: no binding.
B4: no binding.
B5: no binding.
B6: no binding.
B7: no binding.

In order of rising Kd:
1. B13  0.893 nM
2. B8  3.68 nM
3. B9  4.77 nM
4. B12  7.93 nM
5. B11  9.03 nM
6. B10  10.1 nM

Target: T4, SARS-CoV-2 wild type spike protein (on reporter virus particles) (SARS-CoV-2, UniProt P0DTC2 14-1273)
Test: cell-based or functional assay

In order of rising “PsV Neut Assay IC50” value:
1. B19  0.116 nM
2. B16  0.155 nM
3. B18  0.169 nM
4. B14  0.613 nM
5. B15  1.29 nM
6. B17  34.1 nM

Target: T4, SARS-CoV-2 wild type spike protein (on …)
Test: cell-based or functional assay
Remark: another data set of the same source

In order of falling “WT PsV IC50” value:
1. B8  14.3 nM
2. B9  7.1 nM
3. B10  3.3 nM
4. B11  2.78 nM
5. B12  2.63 nM
6. B13  0.946 nM
7. B1  0.539 nM
8. B3  0.423 nM
9. B2  0.416 nM
10. B7  0.116 nM
11. B4  0.0657 nM
12. B5  0.0454 nM
13. B6  0.039 nM

Target: T4, SARS-CoV-2 wild type spike protein (on …)
Test: cell-based or functional assay
Remark: another data set of the same source

In order of falling “PSV IC50” value:
1. B17  5.12 mg/L
2. B15  0.194 mg/L
3. B14  0.092 mg/L
4. B18  0.025 mg/L
5. B16  0.023 mg/L
6. B19  0.017 mg/L

Target: T2, SARS-CoV-2 Spike S1-His
Test: Octet BLI, IgG, monovalent
Remark: another data set of the same source

In order of rising Kd:
1. B17  1.15 nM
2. B16  4.91 nM
3. B14  6.92 nM
4. B15  9.59 nM
5. B19  9.6 nM
6. B18  14.5 nM

Target: T3, SARS-CoV1 Spike [change]
Test: Octet BLI, IgG, monovalent
Remark: another data set of the same source

B14: no binding.
B15: no binding.
B16: no binding.
B17: no binding.
B18: no binding.
B19: no binding.

Target: T1, MERS-CoV [change]
Test: Octet BLI, IgG, monovalent

B14: no binding.
B15: no binding.
B16: no binding.
B17: no binding.
B18: no binding.
B19: no binding.

Target: SARS-CoV-2 S Trimer (SARS-CoV-2, UniProt P0DTC2 16-1213)
Test: Octet BLI, IgG, avid

In order of rising Kd:
1. B16  0.843 nM
2. B15  0.854 nM
3. B19  0.865 nM
4. B17  0.987 nM
5. B18  1.14 nM
6. B14  1.29 nM
